Measurements taken from article PMC9122904, “Insights into the client protein release mechanism of the ATP-independent chaperone Spy” (Nature Communications, 2022).

Columns and labels:
Experiment in all cases: BLI; Octet RED96; client biotinylated and loaded on streptavidin sensors; Spy or Spy variant in solution at 0.25, 0.5, 1, 1.5 and 2 μM; 40 mM HEPES, 150 mM NaCl, pH 7.5; Kd calculated as koff/kon
Conditions in all cases: both partners purified
[1] = molecular target: T1, Spy_(24-124) (UniProt P77754 47-147)
T1 construct: source: E. coli BL21 (DE3), purified (Ni-NTA, cation exchange, SEC); not shown: His6, N-terminal, cleaved; SUMO, N-terminal, cleaved
T1 sequence (looked up): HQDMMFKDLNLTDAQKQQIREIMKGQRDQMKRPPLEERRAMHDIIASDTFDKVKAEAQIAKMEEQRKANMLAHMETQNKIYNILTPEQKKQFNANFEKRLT
Method in brief: (§1)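 Client proteins were biotinylated with EZ-link NHS-biotin at a 1:1 molar ratio, loaded onto streptavidin sensors, and measured by biolayer interferometry on an Octet RED96. The loaded sensors were dipped into 40 mM HEPES, 150 mM NaCl, pH 7.5 holding the analyte protein at 0.25, 0.5, 1, 1.5 or 2 μM, then moved to buffer without it. Fitting the wavelength-shift association and dissociation curves in SigmaPlot 12.0 gave the observed association rate and koff, kon was taken from the observed rate plotted against analyte concentration, and Kd was calculated as koff/kon.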

[2] = molecular target: T2, Spy_(29-124) (UniProt P77754 52-147)
T2 construct: also called termini-free Spy; source: E. coli BL21 (DE3), purified (Ni-NTA, cation exchange, SEC); not shown: His6, N-terminal, cleaved; SUMO, N-terminal, cleaved
T2 sequence (looked up): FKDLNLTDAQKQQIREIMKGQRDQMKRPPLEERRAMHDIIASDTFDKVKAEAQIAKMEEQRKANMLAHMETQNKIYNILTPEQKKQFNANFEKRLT
Method in brief: as §1

[3] = molecular target: T3, Spy_(29-130) (UniProt P77754 52-153)
T3 construct: Spy chaperone, residues 29-130; source: E. coli BL21 (DE3), purified (Ni-NTA, cation exchange, SEC); not shown: His6, N-terminal, cleaved; SUMO, N-terminal, cleaved
T3 sequence (looked up): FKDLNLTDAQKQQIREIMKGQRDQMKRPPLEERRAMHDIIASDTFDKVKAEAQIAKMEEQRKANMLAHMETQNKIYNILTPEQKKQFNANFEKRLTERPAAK
Method in brief: as §1

[4] = molecular target: T4, Spy_(21-130) (UniProt P77754 44-153)
T4 construct: Spy chaperone, residues 21-130; source: E. coli BL21 (DE3), purified (Ni-NTA, cation exchange, SEC); not shown: His6, N-terminal, cleaved; SUMO, N-terminal, cleaved
T4 sequence (looked up): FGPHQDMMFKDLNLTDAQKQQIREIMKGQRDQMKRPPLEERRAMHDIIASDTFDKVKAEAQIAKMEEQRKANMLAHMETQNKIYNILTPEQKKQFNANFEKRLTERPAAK
Method in brief: as §1

[5] = molecular target: T5, Spy_(27-127) (UniProt P77754 50-150)
T5 construct: Spy chaperone, residues 27-127; source: E. coli BL21 (DE3), purified (Ni-NTA, cation exchange, SEC); not shown: His6, N-terminal, cleaved; SUMO, N-terminal, cleaved
T5 sequence (looked up): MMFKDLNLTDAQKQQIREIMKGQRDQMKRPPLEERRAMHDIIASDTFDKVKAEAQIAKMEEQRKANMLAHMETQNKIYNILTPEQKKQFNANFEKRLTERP
Method in brief: as §1

[6] = molecular target: T6, Spy_(24-127) (UniProt P77754 47-150)
T6 construct: Spy chaperone, residues 24-127; source: E. coli BL21 (DE3), purified (Ni-NTA, cation exchange, SEC); not shown: His6, N-terminal, cleaved; SUMO, N-terminal, cleaved
T6 sequence (looked up): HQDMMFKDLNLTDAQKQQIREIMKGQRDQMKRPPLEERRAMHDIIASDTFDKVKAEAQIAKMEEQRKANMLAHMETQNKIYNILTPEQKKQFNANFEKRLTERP
Method in brief: as §1

[7] = molecular target: T7, Spy_(27-124) (UniProt P77754 50-147)
T7 construct: source: E. coli BL21 (DE3), purified (Ni-NTA, cation exchange, SEC); not shown: His6, N-terminal, cleaved; SUMO, N-terminal, cleaved
T7 sequence (looked up): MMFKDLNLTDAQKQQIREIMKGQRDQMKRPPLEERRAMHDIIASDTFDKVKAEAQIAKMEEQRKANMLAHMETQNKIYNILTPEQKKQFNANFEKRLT
Method in brief: as §1

[8] = molecular target: T8, Spy_(27-130) (UniProt P77754 50-153)
T8 construct: Spy chaperone, residues 27-130; source: E. coli BL21 (DE3), purified (Ni-NTA, cation exchange, SEC); not shown: His6, N-terminal, cleaved; SUMO, N-terminal, cleaved
T8 sequence (looked up): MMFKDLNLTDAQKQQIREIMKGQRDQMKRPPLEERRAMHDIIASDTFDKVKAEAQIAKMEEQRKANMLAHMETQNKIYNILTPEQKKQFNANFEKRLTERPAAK
Method in brief: as §1

Kd [1]: 1640 nM
Kd [2]: 323 nM
Kd [3]: 333 nM
Kd [4]: 2490 nM
Kd [5]: 300 nM
Kd [6]: 1730 nM
Kd [7]: 283 nM
Kd [8]: 297 nM
B1: Im7 H40W L53A I54A (natural protein)
chain: MELKNSISDYTEAEFVQLLKEIEKENVAATDDVLDVLLEWFVKITEHPDGTDAAYYPSDNRDDSPEGIVKEIKEWRAANGKPGFKQG
modifications: biotin (EZ-link NHS-biotin, 1:1 molar ratio of biotin to protein)
notes: Im7 (colicin E7 immunity protein) with H40W L53A I54A; Spy was made with an N-terminal His6-SUMO tag that was cleaved; also called Im7AAW; partially folded client; source: purified by a similar procedure to Spy
